Measurements published in patent publication US20150152165.

Legend:
SELP815K 6-mer [1] = test system: SELP815K 6-mer
SELP815K 6-mer [2] = biological target: SELP815K 6-mer; remark: listed apart in the source

MMP-2
SDS-PAGE analysis of enzymatic digestion (SELP815K 6-mer [1]): SELP815K without the responsive sequence is not | Young's modulus of hydrogel (SELP815K 6-mer [1]): there was no significant effect present in the standard SELP-815K polymer | protein loss from hydrogel in the presence of MMPs (SELP815K 6-mer [1]): SELP815K displayed statistically insignificant levels of increased protein loss in the presence of MMPs | total release of 100 nm fluorescent nanoparticles from hydrogel at two weeks (no treatment 9.3%) (SELP815K 6-mer [1]): MMP-2 and MMP-9 treatment conditions yielded release of 12.1% and 9.4%, respectively | SDS-PAGE analysis of enzymatic digestion (SELP815K-MMPRS 6-mer): SELP815K-MMPRS is digested by MMP-2 and MMP-9 | higher protein loss from hydrogel compared to control (2 weeks, 10 nM MMP) (SELP815K-MMPRS 6-mer): 63% and 44% higher protein loss compared to control | increase of nanoparticle release compared to control (SELP815K-MMPRS 6-mer): increases of 65% and 95% compared to control | percentage of total polymer per hydrogel lost (control about 24%) (SELP815K-MMPRS 6-mer): enzymatic digestion increasing this percentage to 39% and 35% for MMP-2 and MMP-9-induced degradation, respectively | total release of 100 nm fluorescent nanoparticles from hydrogel at two weeks (no treatment 8.2%) (SELP815K-MMPRS 6-mer): treatment with MMP-2 and MMP-9 caused release of 13.5% and 16% respectively

MMP-9
SDS-PAGE analysis of enzymatic digestion (SELP815K 6-mer [1]): SELP815K without the responsive sequence is not | Young's modulus of hydrogel (SELP815K 6-mer [1]): there was no significant effect present in the standard SELP-815K polymer | protein loss from hydrogel in the presence of MMPs (SELP815K 6-mer [1]): SELP815K displayed statistically insignificant levels of increased protein loss in the presence of MMPs | total release of 100 nm fluorescent nanoparticles from hydrogel at two weeks (no treatment 9.3%) (SELP815K 6-mer [1]): MMP-2 and MMP-9 treatment conditions yielded release of 12.1% and 9.4%, respectively | SDS-PAGE analysis of enzymatic digestion (SELP815K-MMPRS 6-mer): SELP815K-MMPRS is digested by MMP-2 and MMP-9 | higher protein loss from hydrogel compared to control (2 weeks, 10 nM MMP) (SELP815K-MMPRS 6-mer): 63% and 44% higher protein loss compared to control | increase of nanoparticle release compared to control (SELP815K-MMPRS 6-mer): increases of 65% and 95% compared to control | loss in Young's modulus of hydrogel (SELP815K-MMPRS 6-mer): MMP-9 affected a 24% loss | percentage of total polymer per hydrogel lost (control about 24%) (SELP815K-MMPRS 6-mer): enzymatic digestion increasing this percentage to 39% and 35% for MMP-2 and MMP-9-induced degradation, respectively | total release of 100 nm fluorescent nanoparticles from hydrogel at two weeks (no treatment 8.2%) (SELP815K-MMPRS 6-mer): treatment with MMP-2 and MMP-9 caused release of 13.5% and 16% respectively

B1: Human Leukocyte Elastase (protein)
chain: IVGGRRARPHAWPFMVSLQLRGGHFCGATLIAPNFVMSAAHCVANVNVRAVRVVLGAHNLSRREPTRQVFAVQRIFENGYDPVNLLNDIVILQLNGSATINANVQVAQLPAQGRRLGNGVQCLAMGWGLLGRNRGIASVLQELNVTVVTSLCRRSNVCTLVRGRQAGVCFGDSGSPLVCNGLIHGIASFVRGGCASGLYPDAFAPVAQFVNWIDSIIQ
soluble fraction release from hydrogel (elastase degradation) (SELP47K): SELP815K at 8 wt % is more resistant to degradation than SELP47K and SELP415K at 12 wt % | soluble fraction release from hydrogel (elastase degradation) (SELP815K 6-mer [2]): SELP815K shows the lowest sensitivity to degradation | soluble fraction release from hydrogel (elastase degradation) (SELP415K): SELP415K appears to be the most sensitive to elastase degradation
